{
  "source": "the nanobody polyreactivity screen of Harvey et al. (2022)",
  "data": [
    {"assay": "yeast display, Sf9 membrane polyspecificity reagent, FACS + sequencing; frameworks hold sequencing errors", "how_it_was_run": "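A nanobody's polyreactivity label depends on the gate it was sorted from. Yeast display cells were stained with 10% biotinylated, detergent-solubilized Sf9 membrane reagent for 1 hour at 4 °C, enriched on streptavidin microbeads and sorted by FACS. The low and high (top ~1%) gates were set on anti-HA fluorescence for expression and streptavidin fluorescence for reagent binding.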", "values": [
      {"sequence": "LVQLQESRGGLVLAGGGLRLSCPESVNIFTYVIMGWYRQQPGKERELVAAITYGTFTNYADSVKGPFTISRDNAKNTVYLHMNCLKPEDTAVYHCAVQSPLIEPRLYYWGQGTQVTVSS", "polyreactivity (PSR sort gate)": "high polyreactivity"},
      {"sequence": "QVQLVESGRGLVQAGGSLRLSCAASGSIFPTYALGCYRQAPGKERELVAAISSGENTYYADSVKGRFTISRDNAKNTVSLQMNSLKPEDTAVYFCAAADNYGIRDLYASDGTQNYYWGQGTQVTVSS", "polyreactivity (PSR sort gate)": "low polyreactivity"},
      {"sequence": "HVQLVESGGGLVQAGGSLRLSCAASGRIFSVYTMGWYRQAPGKDRELVATISSGGRTNYADSVKGRFTISRDNAKNTVYLQMNSLKPEDTAVYYCAAVPYGFVGYDDYWGQGTQVTVSS", "polyreactivity (PSR sort gate)": "low polyreactivity"},
      {"sequence": "QVQHGESGGGLVQAGSSLRLSCAASGSTIVNNAMGWYRQAPGKERELVAANTSGGSTNYADSVKGRFTISRDNAKNTVYLQMNSLKPEDTAVYYSNADGDSWYTGIPAVSHGYWGQGTQVTVSS", "polyreactivity (PSR sort gate)": "low polyreactivity"},
      {"sequence": "QVQLVESGGGLVQAGGSLRLSCAASGSIFHPYTMGWSRQAPGKERELVAAISWSGGRTYYADSVKGRFTISRDNAKNTVYLQMNSLKPEDTAVYYCAADVTLWYDSWGQGTQVTVSS", "polyreactivity (PSR sort gate)": "low polyreactivity"},
      {"sequence": "QVQLVESGGGLVQAGGSLRLSCAASGSTFYVNTMGWYRQAPGKERELVAAINWRGGSTYYADSVKGRFTISRDNAKNTVYLQMNSLKPEDTAVYYCAAYGYYRYVTAYIYDMDYWGQGTQVTVSS", "polyreactivity (PSR sort gate)": "low polyreactivity"},
      {"sequence": "QVQLVESGGVLVQAGGSLRLSCAASGSIFSAYVMGWYRQAPGKERELVAAINRGGNTYYADSVKGRFTISRDNAKNTVYLQMNSLKPEDTAVYYCNAQWYYLRYRYDYWGQGTQVTVSS", "polyreactivity (PSR sort gate)": "high polyreactivity"},
      {"sequence": "QVQLVESGGGLVQAGGSLRLSCAASGRTFNHYAMGWYRQAPGKERELVAGITISGGSTYYADSVKGRFTISRDHAKNTVDLQMNSLKPEATAVYYCNAVSDYYRQSKWTMDYWGQGTQVTVSS", "polyreactivity (PSR sort gate)": "low polyreactivity"},
      {"sequence": "QVQLVESGGGLVQAGGSLRLSCAASGGTFFTNAMGWYRQAPGKERELVAAISRGGSSTYYADSVKGRFTISRDNAKNTVYLQMTSLKPEDTAVYYCNKAYHRRDSEFGYWGQGTQVTVSS", "polyreactivity (PSR sort gate)": "high polyreactivity"},
      {"sequence": "QVQLVESGGGLVQAGGSLRVSCAASGITSPYNAMGWYRQAPGKERELVAGITSGDSTDYADSVKGRFTISRDNAKNTVYLQMNSLKPEDTAVYYCAADSIRYCDYDYWGHGTQVTVSS", "polyreactivity (PSR sort gate)": "low polyreactivity"},
      {"sequence": "QVQLVESGGGLVQAGGSLRLSCAASGSTFYRNAMGWYRQAPGKEREFVAAISFRGGGTYADSVKGRFTISRDNAKNTVYFQMNILKPEDTAVYYCAADLLSYRGRYEYWGQGTQVTVSS", "polyreactivity (PSR sort gate)": "low polyreactivity"},
      {"sequence": "QVQLVESGGGLVQAGRSLRLSCAASRSIFARYAMAWYRQAPGKERELVAAINSTVSTNYADSVKGRFTISRENAKNTVYLQMNSLKPEDTAVSYCAVDMVRGGLDSWGQGTQVTVSS", "polyreactivity (PSR sort gate)": "low polyreactivity"},
      {"sequence": "QVQLVESGGGLVQAGGSLRLSCAASGYIITSNAMGWYRQAPGKERELVAAITYSDGSTYYADSVKGRFTISRDNAKNTVYLQMNSLIPEDTAVYYCAVDRDYNVAVLRDLDYWGQGTQVTVSS", "polyreactivity (PSR sort gate)": "low polyreactivity"},
      {"sequence": "QVQLVESGGGLVQAGGSLRLSCAASGSTFSPYAMGWYRQAPGKERELVAAINYSSGSTYYADSVKGRFTISRDNAKNTVYLQMNSLKPEDTAVYYCANGWYAGYPYDYWGQGTQVTVSS", "polyreactivity (PSR sort gate)": "low polyreactivity"},
      {"sequence": "QVQLVESGRGLVQAGGSLRLSCAPSGFTFHNNVMGWYRQAPGKERELVATISKSGGSTYYADSVKGRFTISRDNAKNTVYLQMNSLKPEDTAVYYCARRYRDYGRYGYWGQGTQVTVSS", "polyreactivity (PSR sort gate)": "high polyreactivity"},
      {"sequence": "QVQLVESGGGLVQAGGSLRLSCAASGSILTRNAMGWYRQAPGKERELVAAISYSGVRTYYADSVKGRFTISRDNAKNTVYLQMNSLKPEDTAVYYCNAVISSRYDYWGQGTQVTVSS", "polyreactivity (PSR sort gate)": "high polyreactivity"},
      {"sequence": "QVQLVESGGGLVQAGGSLRLSCAASVSIFDLYAMRWYIQAPGKERELVAAISWSDSRTYYADSVKGRFTISRDNATNTVYLQKNSLKPEDTAVYYCAADYRYPDNYGGYDYWGQGTQLTVSS", "polyreactivity (PSR sort gate)": "low polyreactivity"},
      {"sequence": "QVQLVESGGGLVQAGGSLRISCAASGFTFHTYAMGWYRQAPGKERELVAAIDSSGGITYYADSVKGRFTISRDNAKNTVYLQMTSLKPEDTAVYYCAAVFLLFGFEWSYDYWGQGTQVTVSS", "polyreactivity (PSR sort gate)": "low polyreactivity"},
      {"sequence": "QVQLVESGGGLVQAGGSLRLSCAASGLIFDKYAMGWYRQAPGKERELVAAITRSSGTTYYADSVKGRFTISRDNAKNTVYLQMNSLKPEETAVYYCAARFIWGYWGVGSYYWGQATQVTVSS", "polyreactivity (PSR sort gate)": "low polyreactivity"},
      {"sequence": "QVQLVESGGGLVQAGGRLRLSCAASGFTFLDYAMGWYRQAPGKERELVASISSSGGSTRFADSVKGRFTISRDNAKNTVYLQMNSLKPEDTAVYYCNADVDLFGAAYGYDYWGQGTQVTVSS", "polyreactivity (PSR sort gate)": "low polyreactivity"},
      {"sequence": "QVQLVESGGGLVQAGGSLRLSCAASGLIFEVNVMGWYRQAPGTERELVAAITTGGGSTYYADSVKGRFTISRDNAKNTVYLQMNSLKPEDTAVYYCATDYSSYLYDYYTGVGGYEYWGQGTQVTVSS", "polyreactivity (PSR sort gate)": "low polyreactivity"},
      {"sequence": "QVQLVESGGGLVQAGGSLRLSCAASGITFHRNAMGWYRQAPGKERELVAAITRGGSTYYADSVKGRFTISRDNAKNTVYLQMNSLKPEDTAVYYCNAYYWFGPGRDYWGQGTQVTVSS", "polyreactivity (PSR sort gate)": "high polyreactivity"},
      {"sequence": "QVQLVASGGGLVQAGGSLRLSCAASGSTFPRYAMGWYRQAPWKERELVAAITTSGGSTYYADSVKGRFTISRDNAKNTVYLQMNRLKPEDTAVYYCAADYCYYLDAGYYWGQGTQVTVSS", "polyreactivity (PSR sort gate)": "low polyreactivity"},
      {"sequence": "QVQRVESGGGLVQAGGSLRLSCAASGSILGIYGMGWYRQAPGKERELVAAISYSGGSTYYADSVKGRFTISSDNAKNTVYLQMNSLKPEDNAVYYCAADLTRGVSYYVDFYYWGQGTQVTVSS", "polyreactivity (PSR sort gate)": "low polyreactivity"},
      {"sequence": "QVQLVESGGGLVQAGGSLRLSCAASGRIFRYYDMGWYRQAPGKERELVAAITSDGSTKDADSVKGRFTISRDNAKNTVYLQMNSLKQEDTAVYYCNAEVLPTWYSPQLDYWGQGTQVTVSS", "polyreactivity (PSR sort gate)": "low polyreactivity"},
      {"sequence": "QVQLVESGVGLVQAGGSLRLSCAATGRIFDLYAMGWYRQAPGKEREFVAAISGRGGSTYYADSVKGRFTISRDNAKNTVYLEMNSLKPEDTAVYYCNAKRSLYGRYGYWGQGSQVTVSS", "polyreactivity (PSR sort gate)": "high polyreactivity"},
      {"sequence": "QVQLVESGGGLVQAGGSLRISCAASGRTFFGNAMGWYRQAPGKERELGASISTRGGSTYYADSVKGRFTISRDNAKNTVYLQINSLKPADTAVYDCAAPSQSRGYYYWGQGTQVNVSS", "polyreactivity (PSR sort gate)": "high polyreactivity"},
      {"sequence": "QVQLVESGGGIVQAGGSLRLSCAASGSTFNANGMGWYRQAPGKERELVAAISWRGSTYYADSVKGRFTISRDNAKNTVYLQMNSLKPEDTAVYYCAAYRYSWSYQYRYGYWGQGTQVTVSS", "polyreactivity (PSR sort gate)": "high polyreactivity"},
      {"sequence": "QVQLVESGGGLVQAGGSLRLSCAASGFIFVKYDMGWYRQAHGKERELVAAITTSGTGTFYADSVKGRFTISRDNAKNTVDLQMNSLKPEDTAVYYCNSLGHPGDDWGQGTQVTVSS", "polyreactivity (PSR sort gate)": "low polyreactivity"},
      {"sequence": "QVQLVESGGGLVQAGGSLRLSCAASGSTFFANVMGWYRQAPGKEREFVAAINYRTGSTHYSDSVKGRFTISRDNAKNTVYLQMNSLKPEDTAVYYCAVYYQYTDVYQYSGYSVRYDYWGQGTQVTVSS", "polyreactivity (PSR sort gate)": "low polyreactivity"},
      {"sequence": "QVQLVESGGGLVQAGGSLRLSCAASGFTFWPYAMGWYRQAPGKERELVAAITWSGGRTYYADSVKGRFTISRDNAKNTVYLQMNSLKPEDTAVYYCNVDAYGYRPYRYYYWGQGTQVTVSS", "polyreactivity (PSR sort gate)": "high polyreactivity"},
      {"sequence": "QVQLVESGGGLVQAGGSLRLSCAASGRIFYYYAMGWYRQAPGKERELVAAISQRGGRTYYADSVKGRFTISRDNAKNTVYLQMNSLKPEDTAVYYCNDYPVYGRYTHYGYGHWGQGTQVTVSS", "polyreactivity (PSR sort gate)": "high polyreactivity"},
      {"sequence": "QVQLVESGGGLVQAGGSLRLSCAASGNTFGQYTMGWYRQAPGKERELVAAISWDDSSTNYADSVKGRFTISRDNAKNTVYLQMNSLIPEDTAVYYCAKETELGTQYPYEYDYWGQGTQVTVSS", "polyreactivity (PSR sort gate)": "low polyreactivity"},
      {"sequence": "QVQLVESGGGLVQAGGSLRLSCAASGLIFGWYAMGWYRQAPGKERELVAGISGSGGITYYADSVKGRFTISRDNAKNTVYLQMNSLKPEDTAVYYCNARYPRYYRGVIQYDFWGQGTQVTVSS", "polyreactivity (PSR sort gate)": "low polyreactivity"},
      {"sequence": "QVQLVESGGGLDHAGGSLRLSCAASGITFKRYAMGWYRQAPGKERELVAAISDIGGRTYYADSVKGRFTISRDNAKNTVYLQMNSLKPEDTAVYYCAADYYSPVDWYYYWGQGTQVTVSS", "polyreactivity (PSR sort gate)": "high polyreactivity"},
      {"sequence": "QVQLVESGGGLVQAGGSLRLSCAASGSSFYPYAMGWYRQAPGKERELVAAISRRGGSTYYADSVKGRFTISRDNAKNTVYLQMNSLKPVDTEVYYCNVVTDSPYPVDYWGQGTQVTVSS", "polyreactivity (PSR sort gate)": "high polyreactivity"},
      {"sequence": "QVKLHESGGGLVQAGDSQRLSCAASGNIFRFTDMGWSRQAPRKERELVAAINAGSTTYYADSVKGRFTISRDNAKNTVYLQKNSLKPEDTAVYYWAVYYLGSGTFGYWGQGAQVTVSS", "polyreactivity (PSR sort gate)": "high polyreactivity"},
      {"sequence": "QVQLVESGLGLVQAGGSLSLSCAASGIIFSWNSMGWYIEAPGKERELVAAITRGGGGTTYYADYVKGRFTISRDKAKNTVYLQMNSLKPEDTAVYYCAKAYEVRFEVDYCGQGTQVTVSS", "polyreactivity (PSR sort gate)": "low polyreactivity"},
      {"sequence": "QVQLEESGGGLVQAGGSLRLSCAASGRTFRFYAMGWYRQAPGKERELVAAISESGGNTYYADSVKGRFTISRDNAKNTVYLQMNSLKPEDTAVYYCAARGRWKYNYWGQGTQVTVSS", "polyreactivity (PSR sort gate)": "high polyreactivity"},
      {"sequence": "QVQLVESGGGLVQAGGSLRLSCAASGSTFNSYAMGWNRQAPGKERELVDRILWSGSTYYADSVKGRFTISRDNAKNTVYLQMNSLKPEDTAVYYFAAKRGYHIGDYWGQCTQVTVSS", "polyreactivity (PSR sort gate)": "high polyreactivity"},
      {"sequence": "QVQLVESGGGLVQAGGSLRLSCAASGSIFSGYMGWYRQAPGKDRELVATITSGGSTYADSVKGRFTISRDNAKNSVYLQMNILKPEDTAVYYCARPRPVIQYSGLHYDYWGQGTEVTVSS", "polyreactivity (PSR sort gate)": "low polyreactivity"},
      {"sequence": "QVQLVESGGGLVQAGGSLRLTCAASGSIFVQYAMGWYRQAPGKERELVATISSSGGSTYYADSVKGRCTISRDNAKNTVYLQMNSLKPEDTAVYYFAADWTLDRSYGYYADDYWGQGTQVTVSS", "polyreactivity (PSR sort gate)": "low polyreactivity"},
      {"sequence": "QVQRVESGGGLVQAGGSLRLSCAASGRIFVNYPIGWYRQAPGKERELVAAITSHGSTSYADSVKGRFTISRDNAKNTVYLQMNSLKPEDTAVYYCANDFFEHSPVSHTYSSSKYDYWGQGTQVTVSS", "polyreactivity (PSR sort gate)": "low polyreactivity"}
    ]}
  ]
}
